41 variants from the Human Domainome abundance scans (Beltran et al. 2025) can be followed below.

B1: Tumor protein 63, residues 545 to 610; numbered along this chain, Q9H3D4 (parent)
chain: TDCSIVSFLARLGCSSCLDYFTTQGLTTIYQIEHYSMDDLASLKIPEQFRHAIWKGILDHRQLHEF

± gives the uncertainty stated by the source.

The variants in this data set derive from B1. The data set can be described thus: abundance fitness (aPCA) (normalised: wild type 0, dead -1); higher = more abundant; growth selection in yeast, the domain comes from the species named. The settings on record: Homo sapiens.
Consider TDCSIVSFLARLGCSSCLDYFTTQGLTQIYQIEHYSMDDLASLKIPEQFRHAIWKGILDHRQLHEF, for which the abundance fitness was -0.012 ± 0.029.
As for TDCSIVSFLARLGCSSCLDYFTTQGLTDIYQIEHYSMDDLASLKIPEQFRHAIWKGILDHRQLHEF, the abundance fitness is -0.021 ± 0.036.
TDCSIVSFLARLGCSSCLDYFTTQGLTCIYQIEHYSMDDLASLKIPEQFRHAIWKGILDHRQLHEF: the abundance fitness is -0.211 ± 0.028.
Take TDCSIVSFLARLGCSSCLDYFTTQGLTAIYQIEHYSMDDLASLKIPEQFRHAIWKGILDHRQLHEF: the abundance fitness is -0.065 ± 0.027.
For the variant TDCSIVSFLARLGCSSCLDYFTTQGLTTHYQIEHYSMDDLASLKIPEQFRHAIWKGILDHRQLHEF, the abundance fitness was -0.432 ± 0.066.
For the variant TDCSIVSFLARLGCSSCLDYFTTQGLTTDYQIEHYSMDDLASLKIPEQFRHAIWKGILDHRQLHEF, the abundance fitness was -0.42 ± 0.053.
TDCSIVSFLARLGCSSCLDYFTTQGLTTLYQIEHYSMDDLASLKIPEQFRHAIWKGILDHRQLHEF: the abundance fitness was -0.027 ± 0.025.
On to TDCSIVSFLARLGCSSCLDYFTTQGLTTSYQIEHYSMDDLASLKIPEQFRHAIWKGILDHRQLHEF, for which the abundance fitness was -0.245 ± 0.024.
In the case of TDCSIVSFLARLGCSSCLDYFTTQGLTTVYQIEHYSMDDLASLKIPEQFRHAIWKGILDHRQLHEF, the abundance fitness is -0.019 ± 0.023.
With TDCSIVSFLARLGCSSCLDYFTTQGLTTAYQIEHYSMDDLASLKIPEQFRHAIWKGILDHRQLHEF, the abundance fitness was -0.175 ± 0.042.
On to TDCSIVSFLARLGCSSCLDYFTTQGLTTQYQIEHYSMDDLASLKIPEQFRHAIWKGILDHRQLHEF, for which the abundance fitness is -0.355 ± 0.04.
TDCSIVSFLARLGCSSCLDYFTTQGLTTEYQIEHYSMDDLASLKIPEQFRHAIWKGILDHRQLHEF: the abundance fitness is -0.366 ± 0.036.
For the variant TDCSIVSFLARLGCSSCLDYFTTQGLTTYYQIEHYSMDDLASLKIPEQFRHAIWKGILDHRQLHEF, the abundance fitness is -0.049 ± 0.063.
The figure for TDCSIVSFLARLGCSSCLDYFTTQGLTTRYQIEHYSMDDLASLKIPEQFRHAIWKGILDHRQLHEF is -0.285 ± 0.023; for TDCSIVSFLARLGCSSCLDYFTTQGLTTWYQIEHYSMDDLASLKIPEQFRHAIWKGILDHRQLHEF it is -0.052 ± 0.028.
For TDCSIVSFLARLGCSSCLDYFTTQGLTTKYQIEHYSMDDLASLKIPEQFRHAIWKGILDHRQLHEF, the abundance fitness is -0.366 ± 0.036.
The figure for TDCSIVSFLARLGCSSCLDYFTTQGLTTPYQIEHYSMDDLASLKIPEQFRHAIWKGILDHRQLHEF is -0.309 ± 0.04; for TDCSIVSFLARLGCSSCLDYFTTQGLTTFYQIEHYSMDDLASLKIPEQFRHAIWKGILDHRQLHEF it is 0.063 ± 0.035; for TDCSIVSFLARLGCSSCLDYFTTQGLTTTYQIEHYSMDDLASLKIPEQFRHAIWKGILDHRQLHEF it is -0.046 ± 0.024.
As to TDCSIVSFLARLGCSSCLDYFTTQGLTTMYQIEHYSMDDLASLKIPEQFRHAIWKGILDHRQLHEF, the abundance fitness was 0.042 ± 0.047.
With TDCSIVSFLARLGCSSCLDYFTTQGLTTNYQIEHYSMDDLASLKIPEQFRHAIWKGILDHRQLHEF, the abundance fitness was -0.719 ± 0.051.
In the case of TDCSIVSFLARLGCSSCLDYFTTQGLTTGYQIEHYSMDDLASLKIPEQFRHAIWKGILDHRQLHEF, the abundance fitness is -0.701 ± 0.035.
For TDCSIVSFLARLGCSSCLDYFTTQGLWTIYQIEHYSMDDLASLKIPEQFRHAIWKGILDHRQLHEF, the abundance fitness was -0.135 ± 0.03.
TDCSIVSFLARLGCSSCLDYFTTQGLYTIYQIEHYSMDDLASLKIPEQFRHAIWKGILDHRQLHEF: the abundance fitness was -0.079 ± 0.038.
Regarding TDCSIVSFLARLGCSSCLDYFTTQGLITIYQIEHYSMDDLASLKIPEQFRHAIWKGILDHRQLHEF, the abundance fitness was -0.075 ± 0.038.
The figure for TDCSIVSFLARLGCSSCLDYFTTQGLCTIYQIEHYSMDDLASLKIPEQFRHAIWKGILDHRQLHEF is -0.133 ± 0.037; for TDCSIVSFLARLGCSSCLDYFTTQGLPTIYQIEHYSMDDLASLKIPEQFRHAIWKGILDHRQLHEF it is -0.82 ± 0.07; for TDCSIVSFLARLGCSSCLDYFTTQGLVTIYQIEHYSMDDLASLKIPEQFRHAIWKGILDHRQLHEF it is -0.044 ± 0.022.
On to TDCSIVSFLARLGCSSCLDYFTTQGLMTIYQIEHYSMDDLASLKIPEQFRHAIWKGILDHRQLHEF, for which the abundance fitness was -0.107 ± 0.033.
Take TDCSIVSFLARLGCSSCLDYFTTQGLQTIYQIEHYSMDDLASLKIPEQFRHAIWKGILDHRQLHEF: the abundance fitness is -0.049 ± 0.035.
Consider TDCSIVSFLARLGCSSCLDYFTTQGLSTIYQIEHYSMDDLASLKIPEQFRHAIWKGILDHRQLHEF, for which the abundance fitness was -0.022 ± 0.022.
As to TDCSIVSFLARLGCSSCLDYFTTQGLETIYQIEHYSMDDLASLKIPEQFRHAIWKGILDHRQLHEF, the abundance fitness is -0.04 ± 0.029.
Turning to TDCSIVSFLARLGCSSCLDYFTTQGLNTIYQIEHYSMDDLASLKIPEQFRHAIWKGILDHRQLHEF, the abundance fitness was -0.024 ± 0.028.
In the case of TDCSIVSFLARLGCSSCLDYFTTQGLRTIYQIEHYSMDDLASLKIPEQFRHAIWKGILDHRQLHEF, the abundance fitness is -0.053 ± 0.022.
As for TDCSIVSFLARLGCSSCLDYFTTQGLDTIYQIEHYSMDDLASLKIPEQFRHAIWKGILDHRQLHEF, the abundance fitness was -0.057 ± 0.029.
On to TDCSIVSFLARLGCSSCLDYFTTQGLLTIYQIEHYSMDDLASLKIPEQFRHAIWKGILDHRQLHEF, for which the abundance fitness is -0.084 ± 0.022.
Consider TDCSIVSFLARLGCSSCLDYFTTQGLGTIYQIEHYSMDDLASLKIPEQFRHAIWKGILDHRQLHEF, for which the abundance fitness is -0.123 ± 0.018.
With TDCSIVSFLARLGCSSCLDYFTTQGLFTIYQIEHYSMDDLASLKIPEQFRHAIWKGILDHRQLHEF, the abundance fitness is -0.063 ± 0.035.
As for TDCSIVSFLARLGCSSCLDYFTTQGLKTIYQIEHYSMDDLASLKIPEQFRHAIWKGILDHRQLHEF, the abundance fitness is -0.032 ± 0.038.
For TDCSIVSFLARLGCSSCLDYFTTQGLATIYQIEHYSMDDLASLKIPEQFRHAIWKGILDHRQLHEF, the abundance fitness is -0.105 ± 0.023.
Turning to TDCSIVSFLARLGCSSCLDYFTTQGLHTIYQIEHYSMDDLASLKIPEQFRHAIWKGILDHRQLHEF, the abundance fitness is -0.005 ± 0.061.
